B1: Myc-tagged Atg23 (natural protein, S. cerevisiae, UniProt Q06671 1-453, looked up)
chain: MELNQVLEKKEQILQYLGTLVGLHEKALSDVNSASQVTSIRKDITICLNDLCRINDLLVSHDGLLKREIGSLLRDKQELLELNEREQLLWKERKSWHIKQETDAAPADYVIDKDAIITISSHHRTSLNKYIESVGAENTILSNTDDSDAMIEEVQNAESSADQMIRNYKLLQLSHKQAKSEIIRLETLLRDFKKDNKFIEEELKRQSGRIRSEMGNIDFHLSKIEESKHQLMKRIGFESPLTQEKSLSEKIFNLRLSSADEDYNERQTINMKNFVHMKDLIELKIEDLQEQLMRNKNESSTVLTQRELWLDCQKKVGDLESKLITKLRSSSNSKIPPNEMSEMINSTIQYLNNLLDSSDEKLTTTLISNERDVLSKACEELHSESTTAQDGSSALPSKPIDIHKSHKGSNASSNLKQPSTPSFLVASKSPPKIGISESVVNANKNDAISKKVE
B2: untagged Atg23 (natural protein, S. cerevisiae, UniProt Q06671 1-453, looked up)
chain: MELNQVLEKKEQILQYLGTLVGLHEKALSDVNSASQVTSIRKDITICLNDLCRINDLLVSHDGLLKREIGSLLRDKQELLELNEREQLLWKERKSWHIKQETDAAPADYVIDKDAIITISSHHRTSLNKYIESVGAENTILSNTDDSDAMIEEVQNAESSADQMIRNYKLLQLSHKQAKSEIIRLETLLRDFKKDNKFIEEELKRQSGRIRSEMGNIDFHLSKIEESKHQLMKRIGFESPLTQEKSLSEKIFNLRLSSADEDYNERQTINMKNFVHMKDLIELKIEDLQEQLMRNKNESSTVLTQRELWLDCQKKVGDLESKLITKLRSSSNSKIPPNEMSEMINSTIQYLNNLLDSSDEKLTTTLISNERDVLSKACEELHSESTTAQDGSSALPSKPIDIHKSHKGSNASSNLKQPSTPSFLVASKSPPKIGISESVVNANKNDAISKKVE
B7: FLAG-tagged Atg9^NTR (domain or fragment, S. cerevisiae, UniProt Q12142 1-318, looked up)
chain: MERDEYQLPNSHGKNTFLSRIFGLQSDEVNPSLNSQEMSNFPLPDIERGSSLLHSTNDSREDVDENDLRVPESDQGTSTEEEDEVDEEQVQAYAPQISDGLDGDHQLNSVTSKENVLETEKSNLERLVEGSTDDSVPKVGQLSSEEEEDNEFINNDGFDDDTPLFQKSKIHEFSSKKSNTIEDGKRPLFFRHILQNNRPQRDTQKLFTSSNAIHHDKDKSANNGPRNINGNQKHGTKYFGSATQPRFTGSPLNNTNRFTKLFPLRKPNLLSNISVLNNTPEDRINTLSVKERALWKWANVENLDIFLQDVYNYYLGNG
B8: FLAG-tagged Atg9^CTR (domain or fragment, S. cerevisiae, UniProt Q12142 758-997, looked up)
chain: ENSEYVDGLGYVCKYAMFNMKNIDGEDTHSMDEDSLTKKIAVNGSHTLNSKRRSKFTAEDHSDKDLANNKMLQSYVYFMDDYSNSENLTGKYQLPAKKGYPNNEGDSFLNNKYSWRKQFQPGQKPELFRIGKHALGPGHNISPAIYSTRNPGKNWDNNNNGDDIKNGTNNATAKNDDNNGNNDHEYVLTESFLDSGAFPNHDVIDHNKMLNSNYNGNGILNKGGVLGLVKEYYKKSDVGR

Assays:
[1] = target: the molecule itself; assay: mass photometry
[2] = target: B7; assay: ITC
[3] = target: B8; assay: ITC
[4] = target: B1; assay: pull-down
[5] = target: T1, FLAG-tagged Atg23 (S. cerevisiae, UniProt Q06671 1-453); assay: pull-down
T1 sequence (looked up): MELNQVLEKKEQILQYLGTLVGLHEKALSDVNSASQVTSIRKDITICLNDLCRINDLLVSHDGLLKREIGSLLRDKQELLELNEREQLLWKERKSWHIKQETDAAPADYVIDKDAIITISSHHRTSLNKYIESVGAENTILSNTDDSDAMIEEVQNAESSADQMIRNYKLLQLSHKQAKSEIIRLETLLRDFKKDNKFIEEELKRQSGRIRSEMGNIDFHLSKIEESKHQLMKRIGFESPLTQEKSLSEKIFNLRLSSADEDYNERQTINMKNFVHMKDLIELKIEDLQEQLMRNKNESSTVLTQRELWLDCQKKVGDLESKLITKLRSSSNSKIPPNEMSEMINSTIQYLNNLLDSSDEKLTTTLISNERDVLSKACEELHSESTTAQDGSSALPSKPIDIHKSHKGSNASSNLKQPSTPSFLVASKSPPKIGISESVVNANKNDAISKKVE

[6] = target: B8; assay: pull-down
[7] = target: B2; assay: ITC
[8] = target: T2, Atg23^Y16A_K42A_D43A_E380A mutant (S. cerevisiae, UniProt Q06671 1-453, Y16A | K42A | D43A | E380A); assay: pull-down
T2 sequence (looked up): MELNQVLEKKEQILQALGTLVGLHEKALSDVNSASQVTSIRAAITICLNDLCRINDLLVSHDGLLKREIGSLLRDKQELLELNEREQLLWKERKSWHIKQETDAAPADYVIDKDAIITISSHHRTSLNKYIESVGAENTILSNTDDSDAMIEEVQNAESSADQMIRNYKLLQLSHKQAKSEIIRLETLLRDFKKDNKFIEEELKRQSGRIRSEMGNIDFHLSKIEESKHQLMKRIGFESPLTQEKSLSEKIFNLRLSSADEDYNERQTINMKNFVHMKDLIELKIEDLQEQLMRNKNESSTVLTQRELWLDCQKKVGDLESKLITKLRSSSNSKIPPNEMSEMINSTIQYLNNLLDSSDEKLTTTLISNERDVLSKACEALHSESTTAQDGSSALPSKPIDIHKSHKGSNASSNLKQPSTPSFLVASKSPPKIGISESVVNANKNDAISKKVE

[9] = target: T3, Atg23 (no tag named in the legend) (S. cerevisiae, UniProt Q06671 1-453); assay: pull-down
T3 sequence (looked up): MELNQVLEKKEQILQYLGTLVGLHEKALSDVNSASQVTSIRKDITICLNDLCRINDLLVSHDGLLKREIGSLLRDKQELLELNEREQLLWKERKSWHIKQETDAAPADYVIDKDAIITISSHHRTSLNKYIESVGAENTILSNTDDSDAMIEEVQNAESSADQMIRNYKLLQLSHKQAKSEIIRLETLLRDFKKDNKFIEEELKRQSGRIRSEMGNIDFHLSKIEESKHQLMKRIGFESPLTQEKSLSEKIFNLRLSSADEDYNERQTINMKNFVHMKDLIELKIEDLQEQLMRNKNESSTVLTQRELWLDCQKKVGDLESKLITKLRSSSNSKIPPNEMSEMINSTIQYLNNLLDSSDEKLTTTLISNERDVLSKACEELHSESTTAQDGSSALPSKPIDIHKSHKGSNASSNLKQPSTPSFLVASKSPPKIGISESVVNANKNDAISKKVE

With B1 the “stoichiometry N” value [1] was 2.

In the case of B2, the “stoichiometry N” value [2] is reported as roughly 1 and the “stoichiometry N” value [3] is reported as roughly 1.

B3: FLAG-tagged Atg9^CTR_S948A_S969A (domain or fragment, S. cerevisiae, UniProt Q12142 758-997, looked up)
chain: ENSEYVDGLGYVCKYAMFNMKNIDGEDTHSMDEDSLTKKIAVNGSHTLNSKRRSKFTAEDHSDKDLANNKMLQSYVYFMDDYSNSENLTGKYQLPAKKGYPNNEGDSFLNNKYSWRKQFQPGQKPELFRIGKHALGPGHNISPAIYSTRNPGKNWDNNNNGDDIKNGTNNATAKNDDNNGNNDHEYVLTEAFLDSGAFPNHDVIDHNKMLNANYNGNGILNKGGVLGLVKEYYKKSDVGR
B3: binds [4].

B4: FLAG-tagged Atg9^CTR_Y989F_Y990F (domain or fragment, S. cerevisiae, UniProt Q12142 758-997, looked up)
chain: ENSEYVDGLGYVCKYAMFNMKNIDGEDTHSMDEDSLTKKIAVNGSHTLNSKRRSKFTAEDHSDKDLANNKMLQSYVYFMDDYSNSENLTGKYQLPAKKGYPNNEGDSFLNNKYSWRKQFQPGQKPELFRIGKHALGPGHNISPAIYSTRNPGKNWDNNNNGDDIKNGTNNATAKNDDNNGNNDHEYVLTESFLDSGAFPNHDVIDHNKMLNSNYNGNGILNKGGVLGLVKEFFKKSDVGR
B4: binds [4].

B5: Myc-Atg9^CTR_939-997-StrepII^2x (domain or fragment, S. cerevisiae, UniProt Q12142 939-997, looked up)
chain: NDHEYVLTESFLDSGAFPNHDVIDHNKMLNSNYNGNGILNKGGVLGLVKEYYKKSDVGR
B5: binds [5].

B6: SUMO*-Atg27^CTR-StrepII^2x (domain or fragment, S. cerevisiae, UniProt P46989 223-271, looked up)
chain: TRGGSFQDFRAEFIQRSTQFLTSLPEFCKEVVSRILGRSTAQRGGYSAV
B6: binds [6].

B7 showed a Kd [7] of 6.7 ± 1.2 µM.

For B8, the Kd [7] was 0.54 ± 0.08 µM and the binding result [8] was “binds”.

B9: FLAG-tagged Atg9^CTR_S948D_S969D (domain or fragment, S. cerevisiae, UniProt Q12142 758-997, looked up)
chain: ENSEYVDGLGYVCKYAMFNMKNIDGEDTHSMDEDSLTKKIAVNGSHTLNSKRRSKFTAEDHSDKDLANNKMLQSYVYFMDDYSNSENLTGKYQLPAKKGYPNNEGDSFLNNKYSWRKQFQPGQKPELFRIGKHALGPGHNISPAIYSTRNPGKNWDNNNNGDDIKNGTNNATAKNDDNNGNNDHEYVLTEDFLDSGAFPNHDVIDHNKMLNDNYNGNGILNKGGVLGLVKEYYKKSDVGR
B9: binds [9].

— paper doi:10.1101/2025.11.06.685569 (bioRxiv, 2025)
